{
  "source": "the nanobody polyreactivity screen of Harvey et al. (2022)",
  "data": [
    {"experiment": "yeast display, Sf9 membrane polyspecificity reagent, FACS + sequencing; frameworks hold sequencing errors", "how_it_was_run": "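Sorting gates, low and high (top ~1%), were placed on anti-HA fluorescence to track expression and on streptavidin fluorescence to track reagent binding. A clone's polyreactivity label is taken from the gate it came out of. The reagent was 10% biotinylated, detergent-solubilized Sf9 membrane, applied for 1 hour at 4 °C to galactose-induced yeast display cells.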", "values": [
      {"sequence": "QVQLVESGGGLVQARGSLRLSCAASGAIFVVYTMGWYRQAPGKERELVAAITQNGGSSTYYADSVKGSFTISRDNAKNTFYLQMNSLKPDDTAVYYCNVDSFTTTFDYWGQGTQVTVSS", "polyreactivity (PSR sort gate)": "low polyreactivity"},
      {"sequence": "QVQLVESGGGLVQAGGSLRLSCAASGRILHGYAMGWYRQAPGKERELVAAITSSGGRTYYADSVKGRFPISRDNAKNTVYLQMISLKPEDTAVYYCAADRPAYRTGDSKYDYWGQGTQVTVSS", "polyreactivity (PSR sort gate)": "low polyreactivity"},
      {"sequence": "QVQLVESGGGLVQAGGSLRLSCAASGSTFSRYAMGWYRQAPGKERELVAAISQGGGRTYYADSVKGRFTISRDNAKNTVYLQMNSLKPEDTAVYYCAAREYYRKPYDHWGQGTQVTVSS", "polyreactivity (PSR sort gate)": "high polyreactivity"},
      {"sequence": "QVQLVESGGGLVQAGGSLRLSCAASGRIFTAYTMGWYRQAPGKERELVAAISTSGTSTYYADSVKGRFTISRDNAKNTVYLQMNSLKPEDTAVYYCATDYYYYPHSQYDYWGQGTQVTVSS", "polyreactivity (PSR sort gate)": "low polyreactivity"},
      {"sequence": "QVQLVESGGGLVQAGGSLRLSCAASGRTFFRNAMGWYRQAPGKERELVAGISRSGGSTYYADSVKGRFTISRDNAKNTVYLQMNSLKPEDTAVYYCAASFRFYRTGYYYWGQGTQVTVSS", "polyreactivity (PSR sort gate)": "high polyreactivity"},
      {"sequence": "QGQLVESGGCLVQAGGSLRLSCAASGRTFYRNAMCLYRQSPGKERELVAVISSSGVRTYYADSVKGRFTISRDNAKNTVYLQMNSLKPEDTAVYYCAADSNSYYRGFDYWGQGTQVTVSS", "polyreactivity (PSR sort gate)": "high polyreactivity"},
      {"sequence": "QDQLVDSGGGLVQAGGSLRLSCAASGSTFGPYPMGWYRQAPGKERELVATISSGGSTYYADSVKGRFTISRDNAKNTVYLQMNSLKPEDTSVYDCAARYWSIYDYWGQGTQVTVSS", "polyreactivity (PSR sort gate)": "low polyreactivity"},
      {"sequence": "QVQLVESGGGLLQAGGSLRISCAASGFPYVMGWYRQAPGKARELVATITSGDSTNYADSVKGRFTISRDNAKNTVYLQMNSLKPEDTAVYYCNARYWGRYYKRVRYDYWGQGTKVTVSS", "polyreactivity (PSR sort gate)": "high polyreactivity"},
      {"sequence": "QVQLVESGGGLVQAGGSLRLSCAASGIIFHPYAMGWYRQAPGKERELVAVITWPGDSTYYADSVKGRFTISRDNAKNTVYLQMNSLKPEDTAVYYCNAAVEGSLNGYEYWGQGTQVTVSS", "polyreactivity (PSR sort gate)": "low polyreactivity"},
      {"sequence": "QVQLVESGGGLVQAGGSLRLSCAASGNTFVDYAMGWYRQAPGKERELVAAISDGGSTNYADSVKGRFTISRDNAKNTVYLQMNSLKPEDTAVYYCAKDELYIPGVWPYYEYDYWGQGTQLTVSS", "polyreactivity (PSR sort gate)": "low polyreactivity"},
      {"sequence": "QVQLVESGGGLVQAGGSLRLSCAASGSTFFLYAMGWYRQAPGKEREFVAAISIGGSTNYADSVKGRFTISRDNAKNTVYLQMNSLKPEDTAVYYCAKLDLQYIQYLGYDYWGQGTQVTVSS", "polyreactivity (PSR sort gate)": "low polyreactivity"},
      {"sequence": "QVQLVESGGGLVQAGGSLRLTCAASGFIFRYYAMGWYRQAHGKEMELVAAIDYSGGSTNYADSVKGRFTISRDNSKNTVYLQMNSLKPEDTAVYYCKAEYTWHRGYDYWGLGTQVTVSS", "polyreactivity (PSR sort gate)": "low polyreactivity"},
      {"sequence": "KVQLVESGGGLVQAGGSLRLSCAASGFIFYYYAMGGYRQAPGKERELVAVLTESGSSTYYADSVKGRFTISRDNAKNSVYLQMNRLKPEDTAVYYCNADFWPYTGKYDYWGQGTQVTVSS", "polyreactivity (PSR sort gate)": "low polyreactivity"},
      {"sequence": "QVQLVESGGGLVQAGGSLRLSCAASGRIFLVYAMGWYRQAPGKERELVAAISWRGGRTYYADSVKGRFTISRDNAKNTFYLQMNSLKPEDTAVYYCAAASKYSQFEYDYWGQGTQVTVSS", "polyreactivity (PSR sort gate)": "high polyreactivity"},
      {"sequence": "QVQLVESGGGLVQAGGSLRLSCAASGSILASYAMGWYRQAPGKERELVAAIRTSGDRTYYADSVKGRFTISRDNAKNTVYLQMNSLKPEDTAVYYCAATYRYRPYSYYQYYSWGQGTQVTVSS", "polyreactivity (PSR sort gate)": "high polyreactivity"},
      {"sequence": "QVQLVESGGGLVQAGGSLRLSCAASGFTFGRNVIGWYRQAPGKERELVAAISLSGGSTYYADSVKGRFTISRDNAKNTVYLQMNSLKPEDTAVYYCAAGYITWYDYWGQGTQVTVSS", "polyreactivity (PSR sort gate)": "high polyreactivity"},
      {"sequence": "QVQLQESGGVLVQAGGDLRLSCAASGNIFRDYIMGWYRQAPGQERDFVAGIDRGANTNYADSVKGRFTISRDNAKNTVYLQMNSLKPEDTAVYYCAVHTAIVPDFIYWGQGTQVTVSS", "polyreactivity (PSR sort gate)": "low polyreactivity"}
    ]}
  ]
}
